This note sets out measurements from US20210261654A1 (BEIJING BEYOND BIOTECHNOLOGY, published 2021).

For this assay, the target named is T1, Recombinant human TNF-α (Sino Biological Inc., catalog number: 10602-HNAE) (human, UniProt P01375 77-233).
T1 construct: Bought protein; also called recombinant human TNF-α protein
Briefly: SPR (Biacore T100), BY19.4 captured by anti-IgG on CM5 chip. Background: In SPR one partner is held on a chip, and binding of the other changes the refractive index at the surface.

T1 sequence (P01375 77-233 limits assumed): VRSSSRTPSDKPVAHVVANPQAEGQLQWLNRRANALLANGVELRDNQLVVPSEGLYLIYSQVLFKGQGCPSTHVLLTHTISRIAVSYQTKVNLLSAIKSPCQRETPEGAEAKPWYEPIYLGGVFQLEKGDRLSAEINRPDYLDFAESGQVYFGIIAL

B1: anti-IL-17A antibody BY19.4 (antibody, human IgG4 S228P, kappa, V domains shown)
VH: QVQLVQSGAEVKKPGSSVKVSCKASGYSFTDYHIHWVRQAPGQGLEWMGVINPMYGTTDYNQRFKGRVTITADESTSTAYMELSSLRSEDTAVYYCARYDYFTGTGVYWGQGTLVTVSS
VL: DIVMTQTPLSLSVTPGQPASISCRSSRSLVHSRGNTYLHWYLQKPGQSPQLLIYKVSNRFIGVPDRFSGSGSGTDFTLKISRVEAEDVGVYYCSQSTHLPFTFGQGTKVEIKR
notes: also called control antibody BY19.4; BY19.4 (ixekizumab)
Regarding B1, the binding result is recorded as “no binding (tested: 7 nM to 600 nM tested)”.
